This test has as its target SARS-CoV-2 Omicron BA.4/5 spike (S) trimer, prefusion-stabilised ectodomain (SARS-CoV-2 (Omicron BA.4/5) | bacteriophage T4) (UniProt P0DTC2). Put plainly: cryo-EM structure.

In turn, “SARS-CoV-2 Omicron BA.4/5 spike (S) trimer, prefusion-stabilised ectodomain (from UniProt P0DTC2 14-1208) (complex)” had a stoichiometry N of 3.

Usually stoichiometry N stands for the number of molecules, sites or subunits per partner or assembly.

The record behind these values is publication PMC10267556.
